Test results from patent publication US20030199040A1 (IMMUNEX, published 2003).

Target: monkey IL-1Rrp1 endogenous to COS7 cells (monkey)
Assay: cell-based or functional assay

B1: hAcPL expressed on COS7 cells (receptor)
chain: ERIKGFNISGCSTKKLLWTYSTRSEEEFVLFCDLPEPQKSHFCHRNRLSPKQVPEHLPFMGSNDLSDVQWYQQPSNGDPLEDIRKSYPHIIQDKCTLHFLTPGVNNSGSYICRPKMIKSPYDVACCVKMILEVKPQTNASCEYSASHKQDLLLGSTGSISCPSLSCQSDAQSPAVTWYKNGKLLSVERSNRIVVDEVYDYHQGTYVCDYTQSDTVSSWTVRAVVQVRTIVGDTKLKPDILDPVEDTLEVELGKPLTISCKARFGFERVFNPVIKWYIKDSDLEWEVSVPEAKSIKSTLKDEIIERNIILEKVTQRDLRRKFVCFVQNSIGNTTQSVQLKEKRGVVLLYILLGTIGTLVAVLAASALLYRHWIEIVLLYRTYQSKDQTLGDKKDFDAFVSYAKWSSFPSEATSSLSEEHLALSLFPDVLENKYGYSLCLLERDVAPGGVYAEDIVSIIKRSRRGIFILSPNYVNGPSIFELQAAVNLALDDQTLKLILIKFCYFQEPESLPHLVKKALRVLPTVTWRGLKSVPPNSRFWAKMRYHMPVKNSQGFTWNQLRITSRIFQWKGLSRTETTGRSSQPKEW
  increase in NFκB activity (NFκB-Luc reporter) in COS7 cells transfected with hAcPL alone and stimulated with hIL-18: 8 fold
